From the supplement of paper PMC11780869

Tested on: Bacillus subtilis
Experiment: cleaved RNA product abundance (RNA/gDNA barcode ratio) relative to median wild-type variant (ratio to wild type); higher = more accumulation of the downstream cleavage product
Procedure: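 MPRA in B. subtilis. Mutagenized RNase Y cleavage-site regions (9% mutation rate) were inserted into a barcoded reporter mRNA (truncated aprE or tetM). Cells were grown in LB at 37°C to OD600 0.3. The cleaved RNA isoform was gel-purified and its barcodes counted; the RNA:gDNA barcode ratio was normalised to the median wild-type variant, and the median over barcodes is reported per variant. The printed sequence is the variable window only; the reporter flanks are not printed.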

[1] = experiment (reporter, strain, medium): exp 2b: truncated aprE reporter, strain BJT200, cleavage site: cggR-gapA (positions -7 to +36 mutated)
[2] = experiment (reporter, strain, medium): exp 8a: truncated aprE reporter, strain BJT201 with 2% xylose (RNase J1 expressed), cleavage site: glnRA (positions -5 to +31 mutated)
[3] = experiment (reporter, strain, medium): exp 4a: truncated aprE reporter, strain BJT201 with 2% xylose (RNase J1 expressed), cleavage site: cggR-gapA (positions -7 to +36 mutated)
[4] = experiment (reporter, strain, medium): exp 6: tetM reporter, strain 168, cleavage site: cggR-gapA (positions -7 to +36 mutated)

## ACAGACGAAGGAGCCGCAAAGAAGTTATGAAGGGAGGAATAATCCCTCAATATAAATATCTCTCACTTATTTAAA
[1]
  cleaved RNA product abundance: 0.22

## CGACATGTCCCGCTTCTTTCATTATTCCGTTAGCAACTGTTTTCCTATATACATTTACCTTTTAAGAGGAGGAAT
[2]
  cleaved RNA product abundance: 0.524

## CGACATGTCCCGCTTCTTTCATTATTCCGTTAGCAACTGTTTTACTATATACATATACCTTTTAAGAGGAGGAAT
[2]
  cleaved RNA product abundance: 0.607

## ACAGACGAAGGAGCCGCAAAGAAGTTGTTAAGGGAAGAATAATCCCTCAATATAAATATCTCTCACTTATTTAAA
[3]
  cleaved RNA product abundance: 0.246

## ACAGACGAAGGAGCCGCAAAGAAGTTATAAAGGGTTGAATAATCCCTCAATATAAATATCTCTCACTTATTTAAA
[1]
  cleaved RNA product abundance: 0.163
[3]
  cleaved RNA product abundance: 0.24

## ACAGACGAAGGAGCCTCAAAGAAGTTATTAAGGGATGAATAATCCCTCAATATAAATATCTCTCACTTATTTAAA
[4]
  cleaved RNA product abundance: 1.25

## ACAGACGAAGGAGCCGCAAAGAAGTTTTTAAGGGACGAATAATCCCTCAATATAAATATCTCTCACTTATTTAAA
[3]
  cleaved RNA product abundance: 0.444

## CGACATGTCCCGCTTCTTTCATTAATCCGTTAGCAACTGTTTTACTATATACATTCACCTTTTAAGAGGAGGAAT
[2]
  cleaved RNA product abundance: 0.4

## CGACATGTCCCGCTTCTTTCATTAATCCGTTAGGAACTTTTTTGCTATATACATTTACCTTTTAAGAGGAGGAAT
[2]
  cleaved RNA product abundance: 0.409

## ACAGACGAAGGAGCCGCAAAGAAGTTATTAAGCGATGAAGAATCCCTCAATATAAATATCTCTCACTTATTTAAA
[3]
  cleaved RNA product abundance: 0.0967

## ACAGACGAAGGAGCCGCAAAGAAGTTATTAAGGGATAATTAATCCCTCAATATAAATATCTCTCACTTATTTAAA
[1]
  cleaved RNA product abundance: 1.13
[3]
  cleaved RNA product abundance: 0.759

## ACAGACGAAGGAGCCGCAAAGAAGTTATTAAGCGCTGAATAATCCCTCAATATAAATATCTCTCACTTATTTAAA
[1]
  cleaved RNA product abundance: 0.0756
[3]
  cleaved RNA product abundance: 0.0581

## CGACATGTCCCGCTTCTTTCATTAATCCGTAAGCAACTGTTTTGGTATATACATTTACCTTTTAAGAGGAGGAAT
[2]
  cleaved RNA product abundance: 0.312

## ACAGACGAAGGAGCCGCAAAGAAGTTATTAAGGGATGAATAATCCATCAACATAAATATCTCTCACTTATTTAAA
[1]
  cleaved RNA product abundance: 0.164

## CGACATGTCCCGCTTCTTTCATTAAGCCGTTAGCAACTGTTTTGCTATATACATTTACCTTTTAAGAGGAGGAAT
[2]
  cleaved RNA product abundance: 0.855

## CGACATGTCCCGCTTCTTTCATTAATACATTAGCGACTTTTTTGCTATATACACTTACCTTTTAAGAGGAGGAAT
[2]
  cleaved RNA product abundance: 0.352

## CGACATGTCCCGCTTCTTTCATTAATCCTTTAGCAACTGTTTTGCGATATACATTTACCTTTTAAGAGGAGGAAT
[2]
  cleaved RNA product abundance: 0.366

## ACAGACGAAGGAGCCGCTAAGAAATTATTAAGGGATGAATAATCCCTCAATATAAATATCTCTCACTTATTTAAA
[1]
  cleaved RNA product abundance: 0.556

## CGACATGTCCCGCTTCTTTCATTAATCCATTAGCAACTGTTTTGATATATACAGTTACCTTTTAAGAGGAGGAAT
[2]
  cleaved RNA product abundance: 0.247

## CGACATGTCCCGCTTCTTTCATTAATCCGTTAGCAACTGTTATGCCATATACATTTACCTTTTAAGAGGAGGAAT
[2]
  cleaved RNA product abundance: 0.232

## ACAGACGAAGGAGCCGCAAAGAAATTATTAAGGGATGAATATTCCCTCAATATAAATATCTCTCACTTATTTAAA
[3]
  cleaved RNA product abundance: 0.595

## CGACATGTCCCGCTTCTTTCATTATTCCGTTAGCAACTGTTTTGCTATATCCATTTACCTTTTAAGAGGAGGAAT
[2]
  cleaved RNA product abundance: 0.359

## CGACATGTCCCGCTTCTTTCATTATTCCGTTAGGAACTGTTTTGCTATATACATTTACCTTTTAAGAGGAGGAAT
[2]
  cleaved RNA product abundance: 0.44

## ACAGACGAAGGAGCCGCAAAGAAGTTATTAAGGGATGAATAATGCCCCAATATAAATATCTCTCACTTATTTAAA
[3]
  cleaved RNA product abundance: 0.134

## CGACATGTCCCGCTTCTTTCATTAATCCGTTAGCAATTGTTTTGCTAAATACATTTACCTTTTAAGAGGAGGAAT
[2]
  cleaved RNA product abundance: 0.342

## ACAGACGAAGGAGCCGCAAAGAAGTTATTAAGGGATGAATAATGACTCAATATAAATATCTCTCACTTATTTAAA
[3]
  cleaved RNA product abundance: 0.142

## ACAGACGAAGGAGCCGCAAATAAGTTATTAAGGTTTGAATAATCCCTCAATATAAATATCTCTCACTTATTTAAA
[3]
  cleaved RNA product abundance: 0.0913

## CGACATGTCCCGCTTCTTTCATTATTCCGTTAACAACTGTTTTGCTATATACATATACCTTTTAAGAGGAGGAAT
[2]
  cleaved RNA product abundance: 0.239

## CGACATGTCCCGCTTCTTTCATTAATCCGTTAGGAACTGTTTTGCTATATACATTTACCTTTTAAGAGGAGGAAT
[2]
  cleaved RNA product abundance: 0.331

## CGACATGTCCCGCTTCTTTCATTAATCCGTTAGCAACTGATTTGCTATATACATTTTCCTTTTAAGAGGAGGAAT
[2]
  cleaved RNA product abundance: 0.328

## ACAGACGAAGGAGCCGCAAAGAAGTTATTAAGGTATGAATAATCCCTCAATATAATTATCTCTCACTTATTTAAA
[3]
  cleaved RNA product abundance: 0.0923

## CGACATGTCCCGCTTCTTTCATTAATCCGTTAGTAACTGTTTTGCTATATACATTTACGTTTTAAGAGGAGGAAT
[2]
  cleaved RNA product abundance: 0.581

## ACAGACGAAGGAGCCGCAAAGAAGTTATTAAGAGATGATTAATCCCTCAATATAAATATCTCTCACTTATTTAAA
[3]
  cleaved RNA product abundance: 0.173

## ACAGACGAAGGAGCCGCAAAGAAGTTATTATGGGATGAATAATCCCTCCATATAAATATCTCTCACTTATTTAAA
[1]
  cleaved RNA product abundance: 0.361

## ACAGACGAAGGAGCCGCAAAGAAGTTATTAAGGGAAGAATAATCCCTTAATATAAATATCTCTCACTTATTTAAA
[1]
  cleaved RNA product abundance: 1.05
[3]
  cleaved RNA product abundance: 0.952

## ACAGACGAAGGAGCCGCAAAGAAGTTATTAAGGGATGAATAATCCCTCAATATAACTATCTCTCACTTATTTAAA
[1]
  cleaved RNA product abundance: 0.201
[3]
  cleaved RNA product abundance: 0.146
[4]
  cleaved RNA product abundance: 0.267

## CGACATGTCCCGCTTCTTTCATTAATCCGTTAGAAACTATTTTGCTATATACATTTACCTTTTAAGAGGAGGAAT
[2]
  cleaved RNA product abundance: 0.339

## ACAGACGAAGGAGCCGCAAAGAAGTTATTAAGGGATAAATAAGCCCTCAATATAAATATCTCTCACTTATTTAAA
[3]
  cleaved RNA product abundance: 0.821

## ACAGACGAAGGAGCCGCAAAGAAGTAATTAAGAGATAAATAATCCCTCAATATAAATATCTCTCACTTATTTAAA
[3]
  cleaved RNA product abundance: 0.123

## CGACATGTCCCGCTTCTTTCATTAATCCGTTAGCAACTGTTGTGCAATATACATTTACCTTTTAAGAGGAGGAAT
[2]
  cleaved RNA product abundance: 0.249

## CGACATGTCCCGCTTCTTTCATTAATCCGTTAGCAACTGTTTTGTTATATACAGTTACCTTTTAAGAGGAGGAAT
[2]
  cleaved RNA product abundance: 0.162

## ACAGACGAAGGAGCCGCAAAGAAGTTATTAAGGGATGAATAATCGCTCAATATAAATATCTCTCACTTATTTAAA
[1]
  cleaved RNA product abundance: 0.101
[3]
  cleaved RNA product abundance: 0.12
[4]
  cleaved RNA product abundance: 0.0971

## ACAGACGAAGGAGCCGCATAGAAGTTATTAAGGGATGAATAATCCCTCATTATAAATATCTCTCACTTATTTAAA
[3]
  cleaved RNA product abundance: 0.41

## ACAGACGAAGGAGCCGCAAAGAAGTTATTAAGTGATGAATAATCCCTCAATATACATATCTCTCACTTATTTAAA
[1]
  cleaved RNA product abundance: 0.0962
[3]
  cleaved RNA product abundance: 0.19

## ACAGACGAAGGAGCCGCAAAAAAATTATAAAGGGATGAATAATCCCTCAATATAAATATCTCTCACTTATTTAAA
[3]
  cleaved RNA product abundance: 0.268

## ACAGACGAAGGAGCCGCAAAGAATTTATTAAGAGATGAATAATCCCTCAATATAAATATCTCTCACTTATTTAAA
[1]
  cleaved RNA product abundance: 0.112
[3]
  cleaved RNA product abundance: 0.142

## CGACATGTCCCGCTTCTTTCATTAATCCGTTCGCAACTGTTTTGCTATAAACATTTACCTTTTAAGAGGAGGAAT
[2]
  cleaved RNA product abundance: 0.122

## ACAGACGAAGGAGCCGCTAAGAAGTTATTAAGGGATGAATAATACCTCAATATAAATATCTCTCACTTATTTAAA
[3]
  cleaved RNA product abundance: 0.15

## ACAGACGAAGGAGCCGCAAAGAAGTTATTAAGGGATGAATATTCTCTCAATATAAATATCTCTCACTTATTTAAA
[1]
  cleaved RNA product abundance: 0.265
[3]
  cleaved RNA product abundance: 0.343

## ACAGACGAAGGAGCCGCAAAGAAGTTATTAAGGGAGGAATAACCCCTCAATATAAATATCTCTCACTTATTTAAA
[3]
  cleaved RNA product abundance: 0.213

## CGACATGTCCCGCTTCTTTCATTAATCCGTTAGCAACTGTTTTGCTATATACATTTAACATTTAAGAGGAGGAAT
[2]
  cleaved RNA product abundance: 0.609

## ACAGACGAAGGAGCCGCAAAGAAGATATTAAGGGATGAATAATCCCTCACTATAAATATCTCTCACTTATTTAAA
[1]
  cleaved RNA product abundance: 0.149

## ACAGACGAAGGAGCCGCAAAGAAGTTATTAAGGGAGGAATAATCCATCAATATAAATATCTCTCACTTATTTAAA
[3]
  cleaved RNA product abundance: 0.209

## CGACATGTCCCGCTTCTTTCATTAATCCGTTAGCAACTGTTTAGATATATACATTTACCTTTTAAGAGGAGGAAT
[2]
  cleaved RNA product abundance: 0.297
